In the supplement of paper PMC9112550, “Optimization of the antimicrobial peptide Bac7 by deep mutational scanning” (BMC Biology, 2022):

Tested on: Escherichia coli TOP10
Experiment: shrunken log2 fold change of peptide-encoding DNA abundance (4.5 h post-induction vs induction); higher = less antimicrobial activity (less host growth inhibition)
Details: time post-induction: 4.5 h; library: site-saturation at positions 5, 18, 19, 20
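Note: peptides expressed intracellularly from a pBAD plasmid library in pooled LB shake-flask culture, induced with 0.3% L-arabinose, DNA abundance read by NGS, three biological replicates, DESeq2 with apeglm shrinkage.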

Sequence | shrunken log2 fold change
RRIRIRPPRLPRPRPRPCEIPRP | -0.0178
RRIRQRPPRLPRPRPRPPCPPRP | 0.085
RRIRTRPPRLPRPRPRPKEPPRP | -0.00172
RRIRERPPRLPRPRPRPRMTPRP | 0.0697
RRIRERPPRLPRPRPRPTCRPRP | -0.146
RRIRTRPPRLPRPRPRPQCVPRP | -0.12
RRIRFRPPRLPRPRPRPCISPRP | -0.068
RRIRKRPPRLPRPRPRPYLPPRP | -0.354
RRIRHRPPRLPRPRPRPHVWPRP | 0.205
RRIRDRPPRLPRPRPRPFNVPRP | -0.00548
RRIRWRPPRLPRPRPRPIRKPRP | 0.636
RRIRRRPPRLPRPRPRPNPFPRP | 0.125
RRIRYRPPRLPRPRPRPAVPPRP | -0.625
RRIRRRPPRLPRPRPRPIWFPRP | 0.0342
RRIRNRPPRLPRPRPRPLAAPRP | 0.568
RRIRQRPPRLPRPRPRPKKPPRP | 0.0619
RRIRARPPRLPRPRPRPKAGPRP | 0.213
RRIRERPPRLPRPRPRPGPNPRP | -0.106
RRIRWRPPRLPRPRPRPCLFPRP | -0.00127
RRIRSRPPRLPRPRPRPKMYPRP | -0.0737

Sequence | shrunken log2 fold change
RRIRFRPPRLPRPRPRPADVPRP | 0.258
RRIRKRPPRLPRPRPRPYACPRP | -0.0471
RRIRTRPPRLPRPRPRPRLGPRP | 0.169
RRIRARPPRLPRPRPRPYYVPRP | -0.169
RRIRVRPPRLPRPRPRPRKDPRP | 0.0324
RRIRWRPPRLPRPRPRPNEQPRP | -0.00804
RRIRDRPPRLPRPRPRPTRQPRP | 0.228
RRIRVRPPRLPRPRPRPHYMPRP | -1.03
RRIRWRPPRLPRPRPRPKNGPRP | -0.156
RRIRGRPPRLPRPRPRPRDDPRP | 0.536
RRIRGRPPRLPRPRPRPNSWPRP | 0.356
RRIRVRPPRLPRPRPRPSQYPRP | -0.389
RRIRSRPPRLPRPRPRPWGQPRP | 0.0926
RRIRSRPPRLPRPRPRPMNQPRP | -0.0276
RRIRARPPRLPRPRPRPAEHPRP | 0.193
RRIRIRPPRLPRPRPRPMCYPRP | -1
RRIRSRPPRLPRPRPRPDERPRP | 0.1
RRIRSRPPRLPRPRPRPMAWPRP | -0.00175
RRIRDRPPRLPRPRPRPATCPRP | 0.171
RRIRMRPPRLPRPRPRPTQIPRP | 0.386

Sequence | shrunken log2 fold change
RRIRGRPPRLPRPRPRPQYFPRP | -0.141
RRIRSRPPRLPRPRPRPSSHPRP | -0.0982
RRIRLRPPRLPRPRPRPIMFPRP | -0.488
RRIRCRPPRLPRPRPRPHWTPRP | -0.226
RRIRCRPPRLPRPRPRPMTMPRP | -0.27
RRIRQRPPRLPRPRPRPKPYPRP | -0.074
RRIRERPPRLPRPRPRPSCAPRP | -0.173
RRIRYRPPRLPRPRPRPKVHPRP | -0.677
RRIRERPPRLPRPRPRPRAQPRP | 0.22
RRIRFRPPRLPRPRPRPPKNPRP | 0.541
RRIRSRPPRLPRPRPRPDYYPRP | -0.831
RRIRNRPPRLPRPRPRPECEPRP | -0.0156
RRIRARPPRLPRPRPRPPHEPRP | 1.29
RRIRRRPPRLPRPRPRPKTWPRP | -0.0361
RRIRFRPPRLPRPRPRPGCNPRP | -0.292
RRIRRRPPRLPRPRPRPYAQPRP | -0.252
RRIRLRPPRLPRPRPRPGKAPRP | 0.0651
RRIRNRPPRLPRPRPRPDSAPRP | -0.126
RRIRSRPPRLPRPRPRPVNAPRP | 0.319
RRIRKRPPRLPRPRPRPYLSPRP | -0.119
